Reference: patent US20120040375A1

Assays:
Biotin-Tn(DT*R)-100 = assay: SPR, Biacore T100, Biotin-Tn(DT*R)-100 on sensor chip SA
[1] = molecular target: biotin-labeled T-47D culture supernatant (MUC1) (human) (UniProt P15941); assay: SPR, Biacore, biotin-labeled T-47D culture supernatant on sensor chip SA
Chain of biotin-labeled T-47D culture supernatant (MUC1) (human) (P15941 24-1097 limits assumed): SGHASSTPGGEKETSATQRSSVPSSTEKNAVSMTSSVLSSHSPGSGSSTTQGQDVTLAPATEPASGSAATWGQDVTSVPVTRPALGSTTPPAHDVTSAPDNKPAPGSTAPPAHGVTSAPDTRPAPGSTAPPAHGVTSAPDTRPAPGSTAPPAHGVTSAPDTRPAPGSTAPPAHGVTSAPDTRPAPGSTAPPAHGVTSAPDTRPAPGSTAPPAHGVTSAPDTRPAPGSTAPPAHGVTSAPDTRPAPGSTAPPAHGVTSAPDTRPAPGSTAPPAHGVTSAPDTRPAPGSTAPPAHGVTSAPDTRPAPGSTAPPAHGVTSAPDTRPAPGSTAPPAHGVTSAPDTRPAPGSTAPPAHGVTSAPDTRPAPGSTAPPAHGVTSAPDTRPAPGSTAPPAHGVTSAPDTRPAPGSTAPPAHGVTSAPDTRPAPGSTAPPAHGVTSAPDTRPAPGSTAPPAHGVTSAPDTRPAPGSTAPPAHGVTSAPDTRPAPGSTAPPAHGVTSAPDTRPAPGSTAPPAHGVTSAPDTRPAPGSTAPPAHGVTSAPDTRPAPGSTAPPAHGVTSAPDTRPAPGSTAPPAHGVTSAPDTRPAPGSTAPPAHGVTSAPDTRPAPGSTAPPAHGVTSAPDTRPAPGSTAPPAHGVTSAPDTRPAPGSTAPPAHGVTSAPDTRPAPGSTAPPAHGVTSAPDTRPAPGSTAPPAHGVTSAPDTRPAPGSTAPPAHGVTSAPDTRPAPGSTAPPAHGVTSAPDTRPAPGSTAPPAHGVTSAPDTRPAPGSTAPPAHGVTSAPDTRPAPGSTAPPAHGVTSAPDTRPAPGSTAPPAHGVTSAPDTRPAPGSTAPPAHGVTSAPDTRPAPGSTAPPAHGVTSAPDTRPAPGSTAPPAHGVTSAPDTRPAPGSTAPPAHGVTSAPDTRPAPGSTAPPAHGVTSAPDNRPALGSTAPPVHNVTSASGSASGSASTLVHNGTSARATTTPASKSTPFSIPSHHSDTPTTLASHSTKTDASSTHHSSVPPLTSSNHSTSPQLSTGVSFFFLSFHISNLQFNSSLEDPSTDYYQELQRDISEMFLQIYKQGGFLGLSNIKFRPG

T100 sequence (peptide, as listed by the source limits assumed): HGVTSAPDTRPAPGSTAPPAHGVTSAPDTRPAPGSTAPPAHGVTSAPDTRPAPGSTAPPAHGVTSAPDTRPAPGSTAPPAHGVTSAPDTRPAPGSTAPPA

## VU-3C6 (antibody)
Biotin-Tn(DT*R)-100
  Kd: 840 nM
  koff: 0.051 s⁻¹
  kon: 61000 M⁻¹ s⁻¹
[1]
  Kd: 150 nM
  koff: 0.015 s⁻¹
  kon: 110000 M⁻¹ s⁻¹

## C595 (antibody)
Biotin-Tn(DT*R)-100
  Kd: 720 nM
  koff: 0.012 s⁻¹
  kon: 16000 M⁻¹ s⁻¹
[1]
  Kd: 580 nM
  koff: 0.026 s⁻¹
  kon: 44000 M⁻¹ s⁻¹

## VU-2G7 (antibody)
Biotin-Tn(DT*R)-100
  Kd: 180 nM
  koff: 0.064 s⁻¹
  kon: 360000 M⁻¹ s⁻¹
[1]
  Kd: 180 nM
  koff: 0.099 s⁻¹
  kon: 550000 M⁻¹ s⁻¹
